# T1: mouse SAD-A KD-UBA fragment (kinase domain and UBA domain) (mouse)
# T1 chain: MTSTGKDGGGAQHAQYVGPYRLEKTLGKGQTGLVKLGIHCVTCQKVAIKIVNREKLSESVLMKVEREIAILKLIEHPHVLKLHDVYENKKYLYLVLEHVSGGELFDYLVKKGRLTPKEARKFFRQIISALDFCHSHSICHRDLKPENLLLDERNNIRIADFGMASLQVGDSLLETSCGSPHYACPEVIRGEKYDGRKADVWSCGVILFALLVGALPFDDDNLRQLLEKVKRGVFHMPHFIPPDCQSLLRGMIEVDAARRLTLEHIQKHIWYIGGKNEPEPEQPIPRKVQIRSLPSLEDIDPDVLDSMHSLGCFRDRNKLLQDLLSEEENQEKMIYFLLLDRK
# T2: mouse SAD-A KD-UBA fragment (kinase domain and UBA domain) (mouse)
# T2 sequence (Q69Z98 whole entry, looked up): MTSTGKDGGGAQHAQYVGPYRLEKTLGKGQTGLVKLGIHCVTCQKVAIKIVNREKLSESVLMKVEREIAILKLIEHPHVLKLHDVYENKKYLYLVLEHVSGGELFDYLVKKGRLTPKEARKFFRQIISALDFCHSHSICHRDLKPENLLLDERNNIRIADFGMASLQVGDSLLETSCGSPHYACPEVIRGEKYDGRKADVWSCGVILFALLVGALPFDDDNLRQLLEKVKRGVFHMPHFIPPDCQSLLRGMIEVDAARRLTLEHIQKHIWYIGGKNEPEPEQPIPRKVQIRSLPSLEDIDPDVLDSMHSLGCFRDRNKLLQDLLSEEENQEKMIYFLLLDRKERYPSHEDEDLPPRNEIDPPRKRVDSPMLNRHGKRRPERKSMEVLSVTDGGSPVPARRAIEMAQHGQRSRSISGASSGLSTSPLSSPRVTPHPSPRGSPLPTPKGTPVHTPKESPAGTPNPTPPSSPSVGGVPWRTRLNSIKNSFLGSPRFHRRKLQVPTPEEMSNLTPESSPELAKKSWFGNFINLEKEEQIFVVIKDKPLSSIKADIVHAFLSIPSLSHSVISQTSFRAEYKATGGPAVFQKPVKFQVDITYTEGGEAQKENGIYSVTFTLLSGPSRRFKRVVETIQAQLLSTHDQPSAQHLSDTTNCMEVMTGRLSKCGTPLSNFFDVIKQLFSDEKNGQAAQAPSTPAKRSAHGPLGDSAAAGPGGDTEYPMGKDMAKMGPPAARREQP
# B1: mouse SAD-A AIS-KA1 fragment (residues 519-653) (domain or fragment)
# chain: KKSWFGNFINLEKEEQIFVVIKDKPLSSIKADIVHAFLSIPSLSHSVISQTSFRAEYKATGGPAVFQKPVKFQVDITYTEGGEAQKENGIYSVTFTLLSGPSRRFKRVVETIQAQLLSTHDQPSAQHLSGIIPKS
# B2: mouse SAD-A C-terminal fragment containing the sequence N terminal to KA1 (506-530) (domain or fragment)
# chain: MSNLTPESSPELAKKSWFGNFINLEKEEQIFVVIKDKPLSSIKADIVHAFLSIPSLSHSVISQTSFRAEYKATGGPAVFQKPVKFQVDITYTEGGEAQKENGIYSVTFTLLSGPSRRFKRVVETIQAQLLSTHDQPSAQHLSGIIPKS
# modifications: No chemistry outside the sequence. Built as residues 506-653 of the 653-residue isoform: the N-terminal limit 506 comes from the printed 506-530 segment, and the C-terminal limit 653 is inferred from the protein end, as in the 519-653 and 530-653 fragments. In 4YOM entity 2, position 2 = K519, 14 = K531 and 136 = S653; the initiator Met and the LEHHHHHH tag are left out.
# Key:
# [1] = target: T1, mouse SAD-A KD-UBA fragment (kinase …); test: apparent Ki from trans-inhibition of KD-UBA kinase activity; residual activity a=0.19
# [2] = target: T1, mouse SAD-A KD-UBA fragment (kinase …); test: trans-inhibition of KD-UBA kinase activity, non-competitive fit (a = 0.19)
# [3] = target: T2, mouse SAD-A KD-UBA fragment (kinase domain and UBA domain) (mouse)
# [4] = target: T1, mouse SAD-A KD-UBA fragment (kinase …); test: trans-inhibition of KD-UBA kinase activity, non-competitive fit (a = 0.15)
# [5] = target: T1, mouse SAD-A KD-UBA fragment (kinase …); test: apparent Ki from trans-inhibition of KD-UBA kinase activity; residual activity a=0.34
# [6] = target: T1, mouse SAD-A KD-UBA fragment (kinase …); test: apparent Ki from trans-inhibition of KD-UBA kinase activity; fragment 506-653; residual activity a=0.14
binder,measurement,setting,value
MSNLTPESSPELAKKSWFGNFINLE [AIS-containing peptide of mouse SAD-A (residues 506-530)],Ki,[1],15.1 µM
B1,Ki,[2],5.85 µM
MSNLTPESSPELAKKSWFGNFINLE (domain or fragment) [chimeric protein: mouse SAD-A residues 506-530 fused to a C-terminal thioredoxin-tag],trans-inhibition of the kinase activity of KD-UBA (10 nM) towards Cdc25C peptide; residual activity at the plateau,[3],15%
same,Ki,[4],7.58 µM
KKSWFGNFINLE [AIS peptide of mouse SAD-A (residues 519-530)],Ki,[5],24.8 µM
B2,Ki,[6],5.82 µM
same,trans-inhibition of the kinase activity of KD-UBA (10 nM) towards Cdc25C peptide; residual activity at the plateau,[3],15%
